Patent US9217139B2, “Extracellularly secreted nuclease” (JAPAN AGENCY FOR MARINE-EARTH SCIENCE AND TECHNOLOGY, priority 2010, dated 2015)

B1: NucS: low-molecular-weight nucleolytic enzyme, about 17 to 21 kDa, secreted by Streptomyces sp. MBE174; SEQ ID NO. 3 (protein)
chain: MPKLYARRRFAVLAALTGLIASAGLFHGPAASAALPTPVSAATARGYLASLKVAPENRTGYKRDLFPHWITQSGTCNTRETVLKRDGTNVVTDAACAATSGSWYSPFDGATWTAASDVDIDHLVPLAEAWDSGASAWTTAQRQAFANDLTRPQLLAVTDTVNQSKGDKDPAEWMPPRAAYHCTYVRAWVQVKYYYGLSVDTAEKTALTNRLAGC
modifications: Streptmyces sp. MBE174
B2: NucL: nucleolytic enzyme of about 66.5 kDa secreted by Streptomyces sp. MBE174; SEQ ID NO. 4 (protein)
chain: MASQSVTRLAALTVAATCSAASVVVLGPPAHADSVRIHDIQGTTRISPYAGRQVADVPGVVTGVRDHGSSRGFWFQDPRPDDDPATSEGVFVFTGSAPGVEAGDAVTVSGTVSEFVPGGTASGNQSLTEITRPTVTVVSRGNPVPDPVVVSARSVPHAYAPAGDAAANGSVNALPLRPDRYALDYYESLEGMNVQVADARVVGATDPYTELWVTVKPGENASPRGGTVYGSRDAQNTGRLQIQTLGVPAGFPAADVGDTLAGATTGPLDYNQFGGYTLVARSLGTLTAGGLARETTREQHRDELSVATYNVENLDPSDGTFAAHAEAIVRNLRSPDIVSLEEIQDDNGATDDGTVTAGVTVGKLIDAVVAAGGPRYDWRSVDPVDKADGGQPGGNIRQVFLFDPRRVSFADRPGGDAVTATGVVKVRGKAALTHSPGRVDPANPAWLNSRKPLAGEFSFRGRTVFVIANHFASKGGDQGLTSQYQPPARSSETQRHLQATAVNTFVKQILAVQKNADVIALGDINDFEFSGTTERLEAGGALWSAVRSLPPGERYSYVYQGNSQVLDQILVSPSIRRGHLSYDSVHINAEFHDQISDHDPQVLRYRP
modifications: Streptmyces sp. MBE174

Legend:
Type in all cases: biochemical
Salmon sperm DNA = assay: standard specific activity measurement method (increase of absorbancy at 260 nm); conditions: 37 degrees Celsius; for specific activity: purified enzyme, 30 minutes, 20 mM Tris/HCl pH 8.5, 1 mM MgCl2, 1 mM CaCl2
Method: The specific activity of NucS was measured at 37 degrees Celsius in 20 mM of Tris/HCl at pH 8.5 that contains 1 mM of MgCl2 and 1 mM of CaCl2 (a measurement method under the condition described here is also referred to as a standard specific activity measurement method, hereinafter); the specific activity was 3.6×10^6 U/mg-protein, which was a very high level of specific activity. In this case, 1 U represents an amount of enzymes necessary to increase the absorbancy of 260 nm by one for 30 minutes when the enzymes works on the following as substrate: Salmon sperm DNA 1 mg/mL (manufactured by Invitrogen; Cat no. 15632-011). As a reference, as for NucS, when the specific activity of Benzonase (Registered Trademark), which was a commercially available nucleolytic enzyme that had the highest specific activity among those listed in a brochure, was measured under the conditions described in the brochure (37 degrees Celsius) with the use of the same substrate; the specific activity was 9.4×10^5 U/mg-protein. As a result, it became clear that the specific activity of NucS is about 3.8 times higher than that of Benzonase.
The specific activity of NucL was 5.6×10^4 U/mg-protein at 37 degrees Celsius in 20 mM of Tris/HCl at pH 8.5 that contains 1 mM of MgCl2 and 1 mM of CaCl2. The isoelectric point was measured by using Novex (Registered Trademark) IEF pH-3-10 gel (manufactured by Invitrogen); and then pl was 7.0. Then, it was determined that a N-terminal amino acid sequence of the purified enzyme was DSVRIHDIQGTTR. The sequence matched 12 out of 13 amino acids of putative protein (putative secreted hydrolase) coded on a genome of Streptomyces scabiei 87.22, and of putative protein (large secreted protein) coded on a genome of S. avermitilis MA-4680.

[1] = tested on: Circular plasmid DNA (pUC 18); assay: degradation of circular plasmid DNA (agarose gel electrophoresis); conditions: single enzyme, 25 degrees Celsius, 15 minutes; NucL level up to 0.5 U
Method: Circular plasmid DNA (pUC 18) that had been purified by using a plasmid purification kit (HiSpeed (Registered Trademark) Plasmid Midi Kit; manufactured by QIAGEN, Cat no. 12643) was used as substrate to analyze nucleic-acid degradation styles of NucS and NucL. According to the standard specific activity measurement method, the enzyme solutions that were different in enzyme level as shown in the table below were added to a plasmid solution (about 2 to 10 μg). Then, a nucleic-acid degradation reaction was carried out at 25 degrees Celsius for 15 minutes. After the degradation, a reaction solution was subjected to a 1-percent agarose gel electrophoresis, and the degradation manner of the degraded DNA was analyzed.
Next, the enzyme level of NucL was increased to 0.5 U, and a test was conducted to examine if the plasmid could be completely degraded (referring to FIG. 13).

[2] = tested on: Deoxyribonucleic acid sodium salt from salmon testes; assay: effects of phosphate on enzyme activity
Method: Effects of phosphate on NucS and NucL were examined. In 0 to 40 mM of potassium phosphate buffer at pH 8.5 that contained 1 mM of MgCl2 and 1 mM of CaCl2, the nucleic-acid degradation activity was measured at 25 degrees Celsius for 15 minutes by using, as substrate, Deoxyribonucleic acid sodium salt from salmon testes 0.4 mg/mL (manufactured by Sigma-Aldrich; Cat no. D1626-1G). […] Meanwhile, compared with NucS, NucL was excellent in resistance to phosphate. NucL could maintain 50 percent of activity even in the presence of 10 mM of potassium phosphate (referring to FIG. 11).

[3] = thermal stability test (residual activity); conditions: heat treatment 30 minutes, 20 mM Tris/HCl pH 8.5, 1 mM MgCl2, 1 mM CaCl2; ice bath = 100 percent
Method: After heat treatment was conducted for 30 minutes at each temperature in 20 mM of Tris/HCl at pH 8.5 that contained 1 mM of MgCl2 and 1 mM of CaCl2, the residual activity was measured (referring to FIG. 6). An activity of an enzyme stored in an ice bath was regarded as 100 percent.

[4] = effects of temperature on enzyme activity; conditions: 15 minutes, 20 mM Tris/HCl pH 8.5, 1 mM MgCl2, 1 mM CaCl2
Method: Under each temperature condition, the nucleic-acid degradation activity was measured for 15 minutes in 20 mM of Tris/HCl at pH 8.5 that contained 1 mM of MgCl2 and 1 mM of CaCl2.

Molecule | specific activity of NucS relative to Benzonase (Salmon sperm DNA; same substrate) | specific activity (Salmon sperm DNA) | degradation of circular plasmid DNA, supercoiled or relaxed type [1] | phosphate concentration that made the enzyme inactive ([2]; potassium phosphate buffer pH 8.5, 1 mM MgCl2, 1 mM CaCl2, 25 degrees Celsius) | temperature until which the enzyme remained stable [3] | optimum reaction temperature [4] | activity maintained in the presence of phosphate ([2]; 10 mM of potassium phosphate, pH 8.5, 25 degrees Celsius)
B1 | about 3.8 times | 3.6×10^6 U/mg-protein | could completely degrade the plasmids | ≥ 0.5 mM | ≤ 45 degrees Celsius | around 55 degrees Celsius | 
B2 |  | 5.6×10^4 U/mg-protein | could completely degrade the plasmids |  | ≤ 35 degrees Celsius | around 45 degrees Celsius | 50%
